# From PMC5397175
# pKd: −log10 of the molar value.
# Legend:
# Sam68 STAR domain = Sam68 STAR domain (UniProt Q07666); test: fluorescence polarization; conditions: FP buffer, salt, pH and temperature not given in the material; SD from three independent experiments
# [1] = molecular target: T1, SLM2 (T-STAR) STAR domain (UniProt O75525); test: fluorescence polarization; conditions: FP buffer, salt, pH and temperature not given in the material; SD from three independent experiments
# T1 sequence: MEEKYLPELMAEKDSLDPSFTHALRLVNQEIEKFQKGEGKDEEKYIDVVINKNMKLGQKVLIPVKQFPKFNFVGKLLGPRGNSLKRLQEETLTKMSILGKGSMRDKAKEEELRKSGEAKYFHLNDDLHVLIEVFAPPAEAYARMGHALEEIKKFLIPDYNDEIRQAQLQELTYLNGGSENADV
# Sequence of Sam68 STAR domain (Q07666 97-283): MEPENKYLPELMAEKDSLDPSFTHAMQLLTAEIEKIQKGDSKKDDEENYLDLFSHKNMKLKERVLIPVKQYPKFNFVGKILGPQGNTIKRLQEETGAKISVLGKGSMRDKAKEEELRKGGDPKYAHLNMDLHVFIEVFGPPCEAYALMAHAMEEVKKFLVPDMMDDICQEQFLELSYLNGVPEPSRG
sequence,measurement,setting,value
CCCACAGUUUAAAAUUUGAUAAAAUUU [Stxbp5l 1],pKd,Sam68 STAR domain,4.81
same,pKd,[1],4.62
CCCUUACAUUUAAAAGAUGAUUUAAAAA [Stxbp5l 2],pKd,Sam68 STAR domain,4.86
same,pKd,[1],4.74
